# Source: paper PMC8106667 (Molecular cell, 2021)
# T1: MBP-GFP-ORC1 wild type, full length (human, UniProt Q13415 1-861)
# T1 sequence (looked up): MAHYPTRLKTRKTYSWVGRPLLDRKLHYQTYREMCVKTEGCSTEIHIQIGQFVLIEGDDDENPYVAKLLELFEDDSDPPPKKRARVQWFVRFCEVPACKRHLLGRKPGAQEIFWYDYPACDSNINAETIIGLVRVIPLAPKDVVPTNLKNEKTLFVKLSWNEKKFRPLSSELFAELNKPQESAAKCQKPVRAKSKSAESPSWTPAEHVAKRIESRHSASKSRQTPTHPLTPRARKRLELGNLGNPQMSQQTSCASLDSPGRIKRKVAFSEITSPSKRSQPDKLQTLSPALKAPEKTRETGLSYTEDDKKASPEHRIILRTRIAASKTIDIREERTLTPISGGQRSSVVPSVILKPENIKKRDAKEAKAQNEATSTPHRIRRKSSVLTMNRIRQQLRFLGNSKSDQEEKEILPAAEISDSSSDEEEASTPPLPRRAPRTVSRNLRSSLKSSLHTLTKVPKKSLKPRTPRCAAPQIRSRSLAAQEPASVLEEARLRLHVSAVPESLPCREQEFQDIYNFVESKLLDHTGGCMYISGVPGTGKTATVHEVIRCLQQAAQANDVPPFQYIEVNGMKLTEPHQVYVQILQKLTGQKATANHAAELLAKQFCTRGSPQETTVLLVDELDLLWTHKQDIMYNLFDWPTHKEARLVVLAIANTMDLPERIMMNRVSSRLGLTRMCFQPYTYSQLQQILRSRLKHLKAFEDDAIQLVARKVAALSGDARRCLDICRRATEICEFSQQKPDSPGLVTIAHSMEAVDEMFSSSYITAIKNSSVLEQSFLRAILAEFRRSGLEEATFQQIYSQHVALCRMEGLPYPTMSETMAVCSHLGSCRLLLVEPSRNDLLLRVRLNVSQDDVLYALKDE
# T2: GST-CDC6 wild type, full length (human, UniProt Q99741 1-560)
# T2 sequence (looked up): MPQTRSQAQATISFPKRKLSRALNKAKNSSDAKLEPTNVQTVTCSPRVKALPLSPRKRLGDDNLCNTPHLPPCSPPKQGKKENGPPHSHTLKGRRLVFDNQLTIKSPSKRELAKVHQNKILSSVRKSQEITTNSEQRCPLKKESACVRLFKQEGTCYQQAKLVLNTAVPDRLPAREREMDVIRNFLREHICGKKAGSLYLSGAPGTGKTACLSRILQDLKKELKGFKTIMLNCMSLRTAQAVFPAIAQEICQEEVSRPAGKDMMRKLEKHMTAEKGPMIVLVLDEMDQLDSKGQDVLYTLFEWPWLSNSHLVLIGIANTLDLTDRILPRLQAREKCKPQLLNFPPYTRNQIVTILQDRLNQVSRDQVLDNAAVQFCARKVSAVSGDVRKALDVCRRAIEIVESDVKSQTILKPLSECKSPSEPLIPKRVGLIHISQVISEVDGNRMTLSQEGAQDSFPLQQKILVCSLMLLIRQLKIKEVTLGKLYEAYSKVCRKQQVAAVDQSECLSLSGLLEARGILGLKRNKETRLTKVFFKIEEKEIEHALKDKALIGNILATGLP
# T3: MBP-GFP-ORC1-HIS6 (human, UniProt Q13415 1-861)
# T3 sequence (looked up): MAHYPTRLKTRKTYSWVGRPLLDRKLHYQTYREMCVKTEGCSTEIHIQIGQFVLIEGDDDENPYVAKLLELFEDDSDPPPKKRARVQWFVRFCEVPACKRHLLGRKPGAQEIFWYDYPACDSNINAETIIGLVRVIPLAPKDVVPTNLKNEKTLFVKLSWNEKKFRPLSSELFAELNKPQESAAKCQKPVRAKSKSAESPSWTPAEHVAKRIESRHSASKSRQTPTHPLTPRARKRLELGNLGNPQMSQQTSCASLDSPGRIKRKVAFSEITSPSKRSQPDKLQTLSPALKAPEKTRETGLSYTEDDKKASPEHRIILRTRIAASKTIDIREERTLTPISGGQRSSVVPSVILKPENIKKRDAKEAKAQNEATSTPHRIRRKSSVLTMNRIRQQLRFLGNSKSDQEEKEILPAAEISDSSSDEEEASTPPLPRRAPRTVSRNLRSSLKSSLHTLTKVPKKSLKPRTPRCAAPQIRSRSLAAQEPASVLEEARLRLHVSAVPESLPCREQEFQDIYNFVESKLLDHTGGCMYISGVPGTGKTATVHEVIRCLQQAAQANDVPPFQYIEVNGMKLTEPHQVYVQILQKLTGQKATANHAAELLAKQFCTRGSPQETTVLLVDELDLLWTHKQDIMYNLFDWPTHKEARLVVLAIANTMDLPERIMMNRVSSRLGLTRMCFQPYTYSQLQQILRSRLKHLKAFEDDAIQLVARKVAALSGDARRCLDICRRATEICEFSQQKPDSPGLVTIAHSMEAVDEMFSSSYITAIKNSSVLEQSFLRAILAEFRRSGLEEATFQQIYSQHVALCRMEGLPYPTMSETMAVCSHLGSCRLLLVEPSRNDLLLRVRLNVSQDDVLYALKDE
# What was measured:
# Experiment in all cases: pull-down
# [1] = biological target: T1, MBP-GFP-ORC1 wild type, full length
# [2] = biological target: T2, GST-CDC6 wild type, full length
# MBP-GFP-ORC1-HIS6 = biological target: T3, MBP-GFP-ORC1-HIS6
Binder,binding result [1],binding result [2],also measured
"MBP-ORC1 R720Q (natural protein, human, UniProt Q13415 1-861, looked up) MAHYPTRLKTRKTYSWVGRPLLDRKLHYQTYREMCVKTEGCSTEIHIQIGQFVLIEGDDDENPYVAKLLELFEDDSDPPPKKRARVQWFVRFCEVPACKRHLLGRKPGAQEIFWYDYPACDSNINAETIIGLVRVIPLAPKDVVPTNLKNEKTLFVKLSWNEKKFRPLSSELFAELNKPQESAAKCQKPVRAKSKSAESPSWTPAEHVAKRIESRHSASKSRQTPTHPLTPRARKRLELGNLGNPQMSQQTSCASLDSPGRIKRKVAFSEITSPSKRSQPDKLQTLSPALKAPEKTRETGLSYTEDDKKASPEHRIILRTRIAASKTIDIREERTLTPISGGQRSSVVPSVILKPENIKKRDAKEAKAQNEATSTPHRIRRKSSVLTMNRIRQQLRFLGNSKSDQEEKEILPAAEISDSSSDEEEASTPPLPRRAPRTVSRNLRSSLKSSLHTLTKVPKKSLKPRTPRCAAPQIRSRSLAAQEPASVLEEARLRLHVSAVPESLPCREQEFQDIYNFVESKLLDHTGGCMYISGVPGTGKTATVHEVIRCLQQAAQANDVPPFQYIEVNGMKLTEPHQVYVQILQKLTGQKATANHAAELLAKQFCTRGSPQETTVLLVDELDLLWTHKQDIMYNLFDWPTHKEARLVVLAIANTMDLPERIMMNRVSSRLGLTRMCFQPYTYSQLQQILRSRLKHLKAFEDDAIQLVARKVAALSGDAQRCLDICRRATEICEFSQQKPDSPGLVTIAHSMEAVDEMFSSSYITAIKNSSVLEQSFLRAILAEFRRSGLEEATFQQIYSQHVALCRMEGLPYPTMSETMAVCSHLGSCRLLLVEPSRNDLLLRVRLNVSQDDVLYALKDE",binds,–,–
"MBP-ORC1 R105Q (natural protein, human, UniProt Q13415 1-861, looked up) MAHYPTRLKTRKTYSWVGRPLLDRKLHYQTYREMCVKTEGCSTEIHIQIGQFVLIEGDDDENPYVAKLLELFEDDSDPPPKKRARVQWFVRFCEVPACKRHLLGQKPGAQEIFWYDYPACDSNINAETIIGLVRVIPLAPKDVVPTNLKNEKTLFVKLSWNEKKFRPLSSELFAELNKPQESAAKCQKPVRAKSKSAESPSWTPAEHVAKRIESRHSASKSRQTPTHPLTPRARKRLELGNLGNPQMSQQTSCASLDSPGRIKRKVAFSEITSPSKRSQPDKLQTLSPALKAPEKTRETGLSYTEDDKKASPEHRIILRTRIAASKTIDIREERTLTPISGGQRSSVVPSVILKPENIKKRDAKEAKAQNEATSTPHRIRRKSSVLTMNRIRQQLRFLGNSKSDQEEKEILPAAEISDSSSDEEEASTPPLPRRAPRTVSRNLRSSLKSSLHTLTKVPKKSLKPRTPRCAAPQIRSRSLAAQEPASVLEEARLRLHVSAVPESLPCREQEFQDIYNFVESKLLDHTGGCMYISGVPGTGKTATVHEVIRCLQQAAQANDVPPFQYIEVNGMKLTEPHQVYVQILQKLTGQKATANHAAELLAKQFCTRGSPQETTVLLVDELDLLWTHKQDIMYNLFDWPTHKEARLVVLAIANTMDLPERIMMNRVSSRLGLTRMCFQPYTYSQLQQILRSRLKHLKAFEDDAIQLVARKVAALSGDARRCLDICRRATEICEFSQQKPDSPGLVTIAHSMEAVDEMFSSSYITAIKNSSVLEQSFLRAILAEFRRSGLEEATFQQIYSQHVALCRMEGLPYPTMSETMAVCSHLGSCRLLLVEPSRNDLLLRVRLNVSQDDVLYALKDE",binds,–,–
"MBP-ORC1^235ARA^237 (MBP-ORC1 A-A), full length (natural protein, human, UniProt Q13415 1-861, looked up) MAHYPTRLKTRKTYSWVGRPLLDRKLHYQTYREMCVKTEGCSTEIHIQIGQFVLIEGDDDENPYVAKLLELFEDDSDPPPKKRARVQWFVRFCEVPACKRHLLGRKPGAQEIFWYDYPACDSNINAETIIGLVRVIPLAPKDVVPTNLKNEKTLFVKLSWNEKKFRPLSSELFAELNKPQESAAKCQKPVRAKSKSAESPSWTPAEHVAKRIESRHSASKSRQTPTHPLTPRARARAELGNLGNPQMSQQTSCASLDSPGRIKRKVAFSEITSPSKRSQPDKLQTLSPALKAPEKTRETGLSYTEDDKKASPEHRIILRTRIAASKTIDIREERTLTPISGGQRSSVVPSVILKPENIKKRDAKEAKAQNEATSTPHRIRRKSSVLTMNRIRQQLRFLGNSKSDQEEKEILPAAEISDSSSDEEEASTPPLPRRAPRTVSRNLRSSLKSSLHTLTKVPKKSLKPRTPRCAAPQIRSRSLAAQEPASVLEEARLRLHVSAVPESLPCREQEFQDIYNFVESKLLDHTGGCMYISGVPGTGKTATVHEVIRCLQQAAQANDVPPFQYIEVNGMKLTEPHQVYVQILQKLTGQKATANHAAELLAKQFCTRGSPQETTVLLVDELDLLWTHKQDIMYNLFDWPTHKEARLVVLAIANTMDLPERIMMNRVSSRLGLTRMCFQPYTYSQLQQILRSRLKHLKAFEDDAIQLVARKVAALSGDARRCLDICRRATEICEFSQQKPDSPGLVTIAHSMEAVDEMFSSSYITAIKNSSVLEQSFLRAILAEFRRSGLEEATFQQIYSQHVALCRMEGLPYPTMSETMAVCSHLGSCRLLLVEPSRNDLLLRVRLNVSQDDVLYALKDE",binds,–,–
"MBP-ORC1 180–240 (domain or fragment, human, UniProt Q13415 180-240, looked up) QESAAKCQKPVRAKSKSAESPSWTPAEHVAKRIESRHSASKSRQTPTHPLTPRARKRLELG",–,binds,–
"MBP-ORC1 100–250 wild type (domain or fragment, human, UniProt Q13415 100-250, looked up) RHLLGRKPGAQEIFWYDYPACDSNINAETIIGLVRVIPLAPKDVVPTNLKNEKTLFVKLSWNEKKFRPLSSELFAELNKPQESAAKCQKPVRAKSKSAESPSWTPAEHVAKRIESRHSASKSRQTPTHPLTPRARKRLELGNLGNPQMSQQ",–,binds,–
"MBP-ORC1 100–250 L237A (domain or fragment, human, UniProt Q13415 100-250, looked up) RHLLGRKPGAQEIFWYDYPACDSNINAETIIGLVRVIPLAPKDVVPTNLKNEKTLFVKLSWNEKKFRPLSSELFAELNKPQESAAKCQKPVRAKSKSAESPSWTPAEHVAKRIESRHSASKSRQTPTHPLTPRARKRAELGNLGNPQMSQQ",–,binds,–
"GST-CDC6-HIS6 (natural protein, human, UniProt Q99741 1-560, looked up) MPQTRSQAQATISFPKRKLSRALNKAKNSSDAKLEPTNVQTVTCSPRVKALPLSPRKRLGDDNLCNTPHLPPCSPPKQGKKENGPPHSHTLKGRRLVFDNQLTIKSPSKRELAKVHQNKILSSVRKSQEITTNSEQRCPLKKESACVRLFKQEGTCYQQAKLVLNTAVPDRLPAREREMDVIRNFLREHICGKKAGSLYLSGAPGTGKTACLSRILQDLKKELKGFKTIMLNCMSLRTAQAVFPAIAQEICQEEVSRPAGKDMMRKLEKHMTAEKGPMIVLVLDEMDQLDSKGQDVLYTLFEWPWLSNSHLVLIGIANTLDLTDRILPRLQAREKCKPQLLNFPPYTRNQIVTILQDRLNQVSRDQVLDNAAVQFCARKVSAVSGDVRKALDVCRRAIEIVESDVKSQTILKPLSECKSPSEPLIPKRVGLIHISQVISEVDGNRMTLSQEGAQDSFPLQQKILVCSLMLLIRQLKIKEVTLGKLYEAYSKVCRKQQVAAVDQSECLSLSGLLEARGILGLKRNKETRLTKVFFKIEEKEIEHALKDKALIGNILATGLP",–,–,binding result (MBP-GFP-ORC1-HIS6): binds
"MBP-CDC6-HIS6 (natural protein, human, UniProt Q99741 1-560, looked up) MPQTRSQAQATISFPKRKLSRALNKAKNSSDAKLEPTNVQTVTCSPRVKALPLSPRKRLGDDNLCNTPHLPPCSPPKQGKKENGPPHSHTLKGRRLVFDNQLTIKSPSKRELAKVHQNKILSSVRKSQEITTNSEQRCPLKKESACVRLFKQEGTCYQQAKLVLNTAVPDRLPAREREMDVIRNFLREHICGKKAGSLYLSGAPGTGKTACLSRILQDLKKELKGFKTIMLNCMSLRTAQAVFPAIAQEICQEEVSRPAGKDMMRKLEKHMTAEKGPMIVLVLDEMDQLDSKGQDVLYTLFEWPWLSNSHLVLIGIANTLDLTDRILPRLQAREKCKPQLLNFPPYTRNQIVTILQDRLNQVSRDQVLDNAAVQFCARKVSAVSGDVRKALDVCRRAIEIVESDVKSQTILKPLSECKSPSEPLIPKRVGLIHISQVISEVDGNRMTLSQEGAQDSFPLQQKILVCSLMLLIRQLKIKEVTLGKLYEAYSKVCRKQQVAAVDQSECLSLSGLLEARGILGLKRNKETRLTKVFFKIEEKEIEHALKDKALIGNILATGLP",–,–,binding result (MBP-GFP-ORC1-HIS6): binds
